Experimental data: patent US20110039801A1

Target: human NK1 receptor (transiently expressed in HEK293 cells) (human) (UniProt P25103)
Test: cell-based or functional assay

Chain of UniProt P25103 (P25103 whole entry): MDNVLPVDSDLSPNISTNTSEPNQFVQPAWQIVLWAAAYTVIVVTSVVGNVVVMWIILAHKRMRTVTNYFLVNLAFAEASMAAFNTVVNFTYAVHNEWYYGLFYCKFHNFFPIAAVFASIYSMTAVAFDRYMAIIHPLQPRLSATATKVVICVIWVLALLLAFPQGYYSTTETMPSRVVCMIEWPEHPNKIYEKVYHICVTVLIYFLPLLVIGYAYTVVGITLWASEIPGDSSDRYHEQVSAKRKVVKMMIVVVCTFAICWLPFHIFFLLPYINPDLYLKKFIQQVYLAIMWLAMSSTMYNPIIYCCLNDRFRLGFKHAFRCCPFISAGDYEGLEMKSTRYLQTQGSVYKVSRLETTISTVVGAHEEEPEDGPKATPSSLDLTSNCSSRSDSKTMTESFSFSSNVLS

NK1 receptor antagonistic activity (calcium imaging, inhibition of the substance P (100 µM) induced rise in fluorescence): 65%
Sequence: SPANTIDE II (peptidic analog of substance P) (peptide)
